In patent US20050129672, “Regulatory sequences that direct gene expression to spinal motor neurons and uses thereof” (published 2005):

What was measured:
HOXB3 + PBX1 = HOXB3 + PBX1 (UniProt P14651;P40424 P14651:1-431,P40424:1-430); experiment: EMSA; cooperative complex; 20 mM Hepes pH 7.6, 30 mM KCl, poly(dI-dC), RT; settings: tags: pSG5-derived vectors, reticulocyte lysate; label: DIG
Description: (§1) PBX1 and HOX proteins used in this study were produced in vitro from the corresponding pSG5-derived expression vectors using a T7 polymerase-based coupled transcription-translation reticulocyte lysate system (Promega, Madison, Wis.). EMSA were performed according to the instruction of DIG gel shift kit (Roche). Briefly, 2 μl of double-stranded DIG-labeled oligonucleotides were incubated with 2 μl of in vitro-translated proteins in 20 μl of binding buffer (20 mM Hepes pH 7.6, 1 mM EDTA, 10 mM (NH₄)₂SO_{4, 1} mM DTT, 0.2%(w/v) Tween 20, 30 mM KCl in the presence of 1 μg of poly (dI-dC) and 0.1 μg of poly L-lysine) for 30 min at room temperature. Pre-binding reactions of unlabeled competitor oligonucleotides at ˜100-fold molar excess occurred for 15 minutes at room temperature. The incubation mixture was resolved by electrophoresis and served for chemiluminescent detection according to recommended conditions of DIG gel shift kit (Roche). DIG-labeled DNA probes used were generated by annealing complementary oligonucleotides:
(§2) Next, a representative subset of HOX proteins was tested for cooperative DNA binding with Pbx 1, to both the wild-type and a mutated 40 bp sequence derived from the 125 bp Hb9 enhancer (FIG. 6D). […] No binding was detected with PBX1 alone (lane 1), or with either of the HOX proteins alone. […]

PBX1 = target: T1, PBX1 (UniProt P40424 P40424:1-430); experiment: EMSA; PBX1 alone; settings: tags: pSG5-derived vector, reticulocyte lysate; label: DIG
T1 sequence: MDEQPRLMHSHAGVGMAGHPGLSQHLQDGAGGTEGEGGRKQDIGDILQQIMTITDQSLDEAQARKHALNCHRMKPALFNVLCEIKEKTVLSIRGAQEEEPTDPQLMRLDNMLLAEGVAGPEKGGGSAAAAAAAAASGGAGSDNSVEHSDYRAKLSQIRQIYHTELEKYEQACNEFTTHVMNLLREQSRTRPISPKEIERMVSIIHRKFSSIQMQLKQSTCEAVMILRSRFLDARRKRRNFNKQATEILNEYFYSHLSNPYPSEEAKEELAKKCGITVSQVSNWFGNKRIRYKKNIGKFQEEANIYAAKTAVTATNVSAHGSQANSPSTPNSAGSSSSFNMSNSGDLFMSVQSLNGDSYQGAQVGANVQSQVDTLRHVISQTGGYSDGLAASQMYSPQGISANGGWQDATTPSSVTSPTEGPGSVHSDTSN
Description: as §1, §2

HOXB1 + PBX1 = HOXB1 + PBX1 (UniProt P14653;P40424 P14653:1-301,P40424:1-430); experiment: EMSA; cooperative complex; abolished by anti-PBX1 antibody; 20 mM Hepes pH 7.6, 30 mM KCl, poly(dI-dC), RT; settings: tags: pSG5-derived vectors, reticulocyte lysate; label: DIG
Description: as §1, §2

HOXB3 = HOXB3 (UniProt P14651 P14651:1-431); experiment: EMSA; HOX alone; settings: tags: pSG5-derived vector, reticulocyte lysate; label: DIG
Description: as §1, §2

HOXB1 = HOXB1 (UniProt P14653 P14653:1-301); experiment: EMSA; HOX alone; settings: tags: pSG5-derived vector, reticulocyte lysate; label: DIG
Description: as §1, §2

HOXC8 + PBX1 = HOXC8 + PBX1 (UniProt P31273;P40424 P31273:1-242,P40424:1-430); experiment: EMSA; no retarded complex with PBX1; settings: tags: pSG5-derived vectors, reticulocyte lysate; label: DIG
Description: as §1, §2

HOXD9 + PBX1 = HOXD9 + PBX1 (UniProt P28356;P40424 P28356:1-352,P40424:1-430); experiment: EMSA; no retarded complex with PBX1; settings: tags: pSG5-derived vectors, reticulocyte lysate; label: DIG
Description: as §1, §2

HOXB3, sequence (P14651 whole entry, one chain of several): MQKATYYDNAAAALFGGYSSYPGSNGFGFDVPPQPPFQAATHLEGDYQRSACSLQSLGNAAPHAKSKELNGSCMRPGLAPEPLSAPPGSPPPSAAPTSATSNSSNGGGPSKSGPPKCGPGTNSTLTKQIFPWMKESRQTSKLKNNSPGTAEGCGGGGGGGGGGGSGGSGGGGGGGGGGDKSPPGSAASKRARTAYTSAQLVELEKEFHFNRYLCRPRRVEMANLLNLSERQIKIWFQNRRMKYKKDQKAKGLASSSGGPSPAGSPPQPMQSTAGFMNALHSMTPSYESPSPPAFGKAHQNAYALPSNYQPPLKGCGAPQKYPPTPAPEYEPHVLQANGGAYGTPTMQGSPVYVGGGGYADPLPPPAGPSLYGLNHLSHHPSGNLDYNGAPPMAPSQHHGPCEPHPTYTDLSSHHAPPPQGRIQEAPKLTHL
HOXB3 + PBX1, sequence (P14651 whole entry, one chain of several): as above
HOXC8 + PBX1, sequence (P31273 whole entry, one chain of several): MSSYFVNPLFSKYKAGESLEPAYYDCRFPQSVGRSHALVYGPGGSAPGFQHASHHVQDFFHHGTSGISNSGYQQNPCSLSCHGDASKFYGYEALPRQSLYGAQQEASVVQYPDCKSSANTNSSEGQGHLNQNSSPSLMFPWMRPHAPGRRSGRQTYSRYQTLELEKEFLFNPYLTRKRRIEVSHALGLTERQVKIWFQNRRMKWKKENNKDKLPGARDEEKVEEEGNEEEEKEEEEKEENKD
HOXD9 + PBX1, sequence (P28356 whole entry, one chain of several): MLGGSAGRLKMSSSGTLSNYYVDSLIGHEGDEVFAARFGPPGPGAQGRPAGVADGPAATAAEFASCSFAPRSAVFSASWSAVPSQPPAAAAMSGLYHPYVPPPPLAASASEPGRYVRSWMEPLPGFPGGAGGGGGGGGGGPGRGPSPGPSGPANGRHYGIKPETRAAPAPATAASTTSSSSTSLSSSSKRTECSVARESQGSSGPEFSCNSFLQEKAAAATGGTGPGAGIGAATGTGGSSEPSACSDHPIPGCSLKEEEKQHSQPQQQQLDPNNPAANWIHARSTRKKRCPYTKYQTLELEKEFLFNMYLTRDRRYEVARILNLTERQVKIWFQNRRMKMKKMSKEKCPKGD
HOXB1, sequence (P14653 whole entry, one chain of several): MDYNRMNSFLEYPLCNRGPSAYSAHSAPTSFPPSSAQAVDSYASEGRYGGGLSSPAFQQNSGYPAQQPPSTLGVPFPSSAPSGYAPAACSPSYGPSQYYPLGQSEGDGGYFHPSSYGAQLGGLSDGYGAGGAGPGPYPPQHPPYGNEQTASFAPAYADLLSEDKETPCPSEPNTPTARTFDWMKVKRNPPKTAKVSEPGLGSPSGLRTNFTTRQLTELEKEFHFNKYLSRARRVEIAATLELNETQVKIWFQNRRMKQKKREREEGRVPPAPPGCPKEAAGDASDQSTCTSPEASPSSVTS
HOXB1 + PBX1, sequence (P14653 whole entry, one chain of several): as above

B1: Hb9 125 bp enhancer wild-type 40 bp probe (dsDNA)
DNA 1: GTACGTTAGCTGATGAATTGACAAAAACTAATCAGCTTTA
DNA 2: TAAAGCTGATTAGTTTTTGTCAATTCATCAGCTAACGTAC
binding result (HOXB3 + PBX1): binds
binding result (PBX1): no binding
binding result (HOXB1 + PBX1): binds
binding result (HOXB3): no binding
binding result (HOXB1): no binding
binding result (HOXC8 + PBX1): no binding
binding result (HOXD9 + PBX1): no binding
